Reference: the supplement of paper PMC9112550, “Optimization of the antimicrobial peptide Bac7 by deep mutational scanning” (BMC Biology, 2022)

Test system: Escherichia coli TOP10
Assay: shrunken log2 fold change of peptide-encoding DNA abundance (4.5 h post-induction vs induction); higher = less antimicrobial activity (less host growth inhibition)
Settings: time post-induction: 4.5 h; library: site-saturation at positions 5, 18, 19, 20
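Further: peptides expressed intracellularly from a pBAD plasmid library in pooled LB shake-flask culture, induced with 0.3% L-arabinose, DNA abundance read by NGS, three biological replicates, DESeq2 with apeglm shrinkage.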

| Sequence | shrunken log2 fold change |
| --- | --- |
| RRIRTRPPRLPRPRPRPNKYPRP | -0.76 |
| RRIRRRPPRLPRPRPRPKHFPRP | 0.3 |
| RRIRSRPPRLPRPRPRPRTRPRP | 0.512 |
| RRIRFRPPRLPRPRPRPHLAPRP | -0.0213 |
| RRIRGRPPRLPRPRPRPVCNPRP | 0.636 |
| RRIRIRPPRLPRPRPRPFSYPRP | 3.51 |
| RRIRVRPPRLPRPRPRPDPKPRP | 0.203 |
| RRIRHRPPRLPRPRPRPQPCPRP | 0.0971 |
| RRIRVRPPRLPRPRPRPWLCPRP | -0.144 |
| RRIRLRPPRLPRPRPRPSVMPRP | -0.199 |
| RRIRWRPPRLPRPRPRPKNMPRP | -0.189 |
| RRIRQRPPRLPRPRPRPWGSPRP | -0.0209 |
| RRIRGRPPRLPRPRPRPIIFPRP | 0.437 |
| RRIRFRPPRLPRPRPRPTQCPRP | 0.322 |
| RRIRARPPRLPRPRPRPGKGPRP | 0.158 |
| RRIRFRPPRLPRPRPRPCPVPRP | -0.618 |
| RRIRQRPPRLPRPRPRPVMPPRP | 0.0623 |
| RRIRPRPPRLPRPRPRPRHSPRP | -0.0642 |
| RRIRMRPPRLPRPRPRPDVMPRP | 0.147 |
| RRIRARPPRLPRPRPRPNRQPRP | 0.257 |
| RRIRQRPPRLPRPRPRPYLHPRP | -0.117 |
| RRIRDRPPRLPRPRPRPYYKPRP | -0.195 |
| RRIRSRPPRLPRPRPRPHSQPRP | 0.0681 |
| RRIRCRPPRLPRPRPRPPCWPRP | 0.264 |
| RRIRHRPPRLPRPRPRPTTAPRP | 0.0968 |

| Sequence | shrunken log2 fold change |
| --- | --- |
| RRIRNRPPRLPRPRPRPIEIPRP | 0.0194 |
| RRIRLRPPRLPRPRPRPYFEPRP | -0.453 |
| RRIRCRPPRLPRPRPRPLDLPRP | -0.0926 |
| RRIRKRPPRLPRPRPRPLCHPRP | 0.252 |
| RRIRTRPPRLPRPRPRPAGEPRP | 0.323 |
| RRIRQRPPRLPRPRPRPTHGPRP | 0.0759 |
| RRIRPRPPRLPRPRPRPVEGPRP | 0.0448 |
| RRIRARPPRLPRPRPRPCNMPRP | -0.253 |
| RRIRERPPRLPRPRPRPHRDPRP | -0.063 |
| RRIRHRPPRLPRPRPRPTYEPRP | 0.15 |
| RRIRNRPPRLPRPRPRPCTYPRP | 0.05 |
| RRIRKRPPRLPRPRPRPTVPPRP | 0.283 |
| RRIRERPPRLPRPRPRPDKCPRP | -0.121 |
| RRIRDRPPRLPRPRPRPMSTPRP | 0.0569 |
| RRIRGRPPRLPRPRPRPHFSPRP | -0.115 |
| RRIRKRPPRLPRPRPRPTWEPRP | -0.0667 |
| RRIRGRPPRLPRPRPRPYFLPRP | -0.345 |
| RRIRQRPPRLPRPRPRPREGPRP | 0.151 |
| RRIRHRPPRLPRPRPRPPYTPRP | -0.266 |
| RRIRWRPPRLPRPRPRPTDHPRP | -0.307 |
| RRIRQRPPRLPRPRPRPLPIPRP | 0.231 |
| RRIRERPPRLPRPRPRPFMLPRP | -0.511 |
| RRIRARPPRLPRPRPRPKHLPRP | 0.417 |
| RRIRPRPPRLPRPRPRPNGYPRP | -0.224 |
| RRIRPRPPRLPRPRPRPHCVPRP | -0.0495 |

| Sequence | shrunken log2 fold change |
| --- | --- |
| RRIRCRPPRLPRPRPRPAIAPRP | 0.165 |
| RRIRCRPPRLPRPRPRPAFIPRP | 0.0295 |
| RRIRQRPPRLPRPRPRPVGTPRP | -0.0913 |
| RRIRARPPRLPRPRPRPDESPRP | 0.0602 |
| RRIRERPPRLPRPRPRPNLNPRP | -0.58 |
| RRIRTRPPRLPRPRPRPTIEPRP | -0.297 |
| RRIRERPPRLPRPRPRPKWFPRP | -0.0144 |
| RRIRCRPPRLPRPRPRPRMGPRP | 0.0392 |
| RRIRRRPPRLPRPRPRPQSLPRP | -0.0788 |
| RRIRMRPPRLPRPRPRPVWFPRP | 0.46 |
| RRIRSRPPRLPRPRPRPKMFPRP | -0.00685 |
| RRIRNRPPRLPRPRPRPEVDPRP | 0.478 |
| RRIRCRPPRLPRPRPRPLGRPRP | -0.151 |
| RRIRTRPPRLPRPRPRPLCNPRP | -0.484 |
| RRIRMRPPRLPRPRPRPRPLPRP | 1.17 |
| RRIRIRPPRLPRPRPRPIAAPRP | 0.0481 |
| RRIRPRPPRLPRPRPRPWGVPRP | -0.128 |
| RRIRGRPPRLPRPRPRPTSEPRP | 0.339 |
| RRIRFRPPRLPRPRPRPTRIPRP | 0.0179 |
| RRIRWRPPRLPRPRPRPEDSPRP | 0.769 |
| RRIRFRPPRLPRPRPRPDAKPRP | 0.417 |
| RRIRERPPRLPRPRPRPQLLPRP | -0.324 |
| RRIRHRPPRLPRPRPRPALWPRP | 0.701 |
| RRIRYRPPRLPRPRPRPKKVPRP | -0.141 |
| RRIRERPPRLPRPRPRPGSNPRP | -0.0638 |

| Sequence | shrunken log2 fold change |
| --- | --- |
| RRIRWRPPRLPRPRPRPWHYPRP | -0.0627 |
| RRIRDRPPRLPRPRPRPGSLPRP | -0.0141 |
| RRIRMRPPRLPRPRPRPEDVPRP | -0.0102 |
| RRIRGRPPRLPRPRPRPKAVPRP | 0.89 |
| RRIRMRPPRLPRPRPRPTASPRP | 1 |
| RRIRPRPPRLPRPRPRPLEMPRP | 0.0597 |
| RRIRKRPPRLPRPRPRPLCTPRP | 0.179 |
| RRIRKRPPRLPRPRPRPAPWPRP | 0.82 |
| RRIRSRPPRLPRPRPRPIHNPRP | -0.415 |
| RRIRIRPPRLPRPRPRPVTEPRP | -0.109 |
| RRIRKRPPRLPRPRPRPKRSPRP | 0.667 |
| RRIRIRPPRLPRPRPRPYMMPRP | -1.26 |
| RRIRCRPPRLPRPRPRPMVSPRP | 0.0237 |
| RRIRFRPPRLPRPRPRPCDEPRP | 0.112 |
| RRIRQRPPRLPRPRPRPLMFPRP | -0.137 |
| RRIRNRPPRLPRPRPRPDIEPRP | 0.0309 |
| RRIRSRPPRLPRPRPRPNWCPRP | 0.0144 |
| RRIRARPPRLPRPRPRPQEKPRP | -0.0334 |
| RRIRWRPPRLPRPRPRPDYMPRP | -0.0885 |
| RRIRGRPPRLPRPRPRPNIIPRP | 0.0628 |
| RRIRTRPPRLPRPRPRPDHNPRP | -0.471 |
| RRIRWRPPRLPRPRPRPNANPRP | 0.109 |
| RRIRTRPPRLPRPRPRPARNPRP | 0.199 |
| RRIRFRPPRLPRPRPRPNAAPRP | 0.419 |
| RRIRGRPPRLPRPRPRPSCRPRP | 0.417 |

| Sequence | shrunken log2 fold change |
| --- | --- |
| RRIRPRPPRLPRPRPRPISKPRP | -0.306 |
| RRIRKRPPRLPRPRPRPKAVPRP | -0.11 |
| RRIRARPPRLPRPRPRPEIHPRP | 0.756 |
| RRIRYRPPRLPRPRPRPGNRPRP | 0.0823 |
| RRIRVRPPRLPRPRPRPWCNPRP | 3.15 |
| RRIRERPPRLPRPRPRPYFNPRP | -0.583 |
| RRIRNRPPRLPRPRPRPCFYPRP | -0.474 |
| RRIRVRPPRLPRPRPRPQMEPRP | -0.0589 |
| RRIRKRPPRLPRPRPRPAPYPRP | 0.212 |
| RRIRHRPPRLPRPRPRPEDFPRP | 0.0333 |
| RRIRVRPPRLPRPRPRPMKTPRP | 0.00695 |
| RRIRLRPPRLPRPRPRPTTFPRP | 0.0632 |
| RRIRKRPPRLPRPRPRPHHWPRP | 0.706 |
| RRIRVRPPRLPRPRPRPKTSPRP | -0.128 |
| RRIRCRPPRLPRPRPRPNEGPRP | -0.1 |
| RRIRPRPPRLPRPRPRPTWGPRP | 0.593 |
| RRIRFRPPRLPRPRPRPMHLPRP | 0.00575 |
| RRIRGRPPRLPRPRPRPCFVPRP | 0.319 |
| RRIRERPPRLPRPRPRPTKKPRP | 0.0853 |
| RRIRGRPPRLPRPRPRPGWYPRP | -0.0318 |
| RRIRARPPRLPRPRPRPQPMPRP | 0.229 |
| RRIRWRPPRLPRPRPRPQGTPRP | 0.104 |
| RRIRWRPPRLPRPRPRPVMDPRP | -0.385 |
| RRIRDRPPRLPRPRPRPYWMPRP | -0.541 |
| RRIRDRPPRLPRPRPRPSMWPRP | -0.0184 |

| Sequence | shrunken log2 fold change |
| --- | --- |
| RRIRSRPPRLPRPRPRPGCKPRP | -0.00169 |
| RRIRDRPPRLPRPRPRPSIWPRP | 0.262 |
| RRIRDRPPRLPRPRPRPSEPPRP | 0.06 |
| RRIRKRPPRLPRPRPRPDCRPRP | -0.00777 |
| RRIRNRPPRLPRPRPRPCITPRP | -0.049 |
| RRIRHRPPRLPRPRPRPCKLPRP | -0.714 |
| RRIRLRPPRLPRPRPRPTMDPRP | -0.0334 |
| RRIRQRPPRLPRPRPRPTVDPRP | 0.349 |
| RRIRWRPPRLPRPRPRPWIDPRP | -0.049 |
| RRIRLRPPRLPRPRPRPFIFPRP | -0.356 |
| RRIRKRPPRLPRPRPRPKPDPRP | 0.861 |
| RRIRYRPPRLPRPRPRPNCKPRP | -0.504 |
| RRIRARPPRLPRPRPRPNLMPRP | -0.0139 |
| RRIRGRPPRLPRPRPRPKMDPRP | 0.738 |
| RRIRPRPPRLPRPRPRPIFDPRP | -0.137 |
| RRIRVRPPRLPRPRPRPKPQPRP | 0.719 |
| RRIRTRPPRLPRPRPRPAMRPRP | 0.445 |
| RRIRNRPPRLPRPRPRPKIEPRP | -0.0398 |
| RRIRFRPPRLPRPRPRPRNLPRP | -0.016 |
| RRIRDRPPRLPRPRPRPNKCPRP | -0.104 |
| RRIRERPPRLPRPRPRPIRVPRP | -0.679 |
| RRIRWRPPRLPRPRPRPWQSPRP | 0.0143 |
| RRIRDRPPRLPRPRPRPTYPPRP | -0.106 |
| RRIRARPPRLPRPRPRPWDFPRP | -0.00352 |
| RRIRTRPPRLPRPRPRPVWNPRP | -0.117 |
